Data taken from patent publication US20130288364, “ENGINEERED KINETOCHORES AND USES THEREOF” (Whitehead Institute for Biomedical Research, published 2013).

What was measured:
CENP-T/CENP-W complex = CENP-T/CENP-W complex (Homo sapiens, UniProt Q96BT3;Q5EE01 Q96BT3:1-561,Q5EE01:1-88); experiment: EMSA; 10 mM Tris pH 7.9, 150 mM KCl, 1 mM EDTA, 4 mM DTT, room temperature; 500 ng protein, 50 ng probe; conditions: tags: 6xHis-CENP-T (full length), untagged CENP-W, co-expressed from pST39 in bacteria; Gene ID 80152 / 387103; label: biotin
Chain of CENP-T/CENP-W complex (Q96BT3 whole entry, chain 1 of 2): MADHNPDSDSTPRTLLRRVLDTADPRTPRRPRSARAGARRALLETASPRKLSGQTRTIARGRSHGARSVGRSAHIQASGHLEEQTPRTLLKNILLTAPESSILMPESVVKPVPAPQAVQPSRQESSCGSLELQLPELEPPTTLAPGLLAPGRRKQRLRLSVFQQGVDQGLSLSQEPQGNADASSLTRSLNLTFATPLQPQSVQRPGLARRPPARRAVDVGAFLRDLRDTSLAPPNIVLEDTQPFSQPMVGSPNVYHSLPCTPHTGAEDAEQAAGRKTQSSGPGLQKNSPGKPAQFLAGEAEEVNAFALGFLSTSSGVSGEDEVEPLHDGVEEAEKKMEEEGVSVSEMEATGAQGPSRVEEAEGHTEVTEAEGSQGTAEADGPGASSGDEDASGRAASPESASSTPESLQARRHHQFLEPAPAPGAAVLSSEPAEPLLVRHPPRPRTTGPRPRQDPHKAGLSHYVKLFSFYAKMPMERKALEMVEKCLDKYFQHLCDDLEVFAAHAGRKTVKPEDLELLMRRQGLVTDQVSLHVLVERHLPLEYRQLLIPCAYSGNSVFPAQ
Chain of CENP-T/CENP-W complex (Q5EE01 whole entry, chain 2 of 2): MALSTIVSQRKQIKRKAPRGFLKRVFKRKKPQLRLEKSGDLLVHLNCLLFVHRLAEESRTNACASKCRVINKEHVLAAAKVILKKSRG
Method: (§1) In vitro DNA binding was assessed by Electro Mobility Shift Assay (EMSA). 500 ng of the indicated protein was incubated for 10 minutes at room temperature in binding buffer (10 mM Tris pH 7.9, 150 mM KCl, 1 mM EDTA, 4 mM DTT. 50 ng of a 20 bp biotinylated double stranded DNA probe […] corresponding to bp 21-40 of the alpha satellite DNA sequence was then added, and incubated for a further 20 minutes. Samples were then run on a 4% non denaturing arylamide gel, semi-dry transferred to nitrocellulose membrane, and blots processed using the Chemiluminescent nucleic acid detection system (Thermo) according to manufacturers instructions. Biotinylated DNA probe with detected with HRP-coupled streptavidin (Thermo).

CENP-T-ΔN/CENP-W complex = CENP-T-ΔN/CENP-W complex (Homo sapiens, UniProt Q96BT3;Q5EE01 Q96BT3:288-561,Q5EE01:1-88); experiment: EMSA; retains DNA binding activity; conditions: tags: 6xHis-CENP-T, untagged CENP-W; label: biotin
Chain of CENP-T-ΔN/CENP-W complex (Q96BT3 288-561, stated change not applied, chain 1 of 2): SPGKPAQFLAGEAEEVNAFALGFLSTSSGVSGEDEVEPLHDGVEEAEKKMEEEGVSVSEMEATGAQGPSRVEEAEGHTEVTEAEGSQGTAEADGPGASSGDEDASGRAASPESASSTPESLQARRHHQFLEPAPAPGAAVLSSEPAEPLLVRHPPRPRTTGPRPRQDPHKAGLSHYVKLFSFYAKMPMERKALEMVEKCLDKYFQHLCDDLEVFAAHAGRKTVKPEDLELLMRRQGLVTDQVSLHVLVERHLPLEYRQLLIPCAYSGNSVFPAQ
Chain of CENP-T-ΔN/CENP-W complex (Q5EE01 whole entry, stated change not applied, chain 2 of 2): as the sequence (Q5EE01 whole entry, chain 2 of 2) above
Method: as §1

B1: alpha-satellite 20 bp probe (bp 21-40) (dsDNA)
DNA 1: CCTTTGAGGCCTTCGTTGGA
DNA 2: TCCAACGAAGGCCTCAAAGG
binding result (CENP-T/CENP-W complex): binds
binding result (CENP-T-ΔN/CENP-W complex): binds
